Reference: patent US20210253718A1, “FRIZZLED5 PROTEIN-BINDING AGENTS” (Modmab Therapeutics Corporation, priority 2016, published 2021)

Target: T1, FZD10 CRD (Homo sapiens, UniProt Q9ULW2)
T1 construct: 30-156; GPI anchor signal (C); expressed in transfected cells; host or cells: CHO cells, lentiviral pLenti-puro
T1 sequence (Q9ULW2 30-156): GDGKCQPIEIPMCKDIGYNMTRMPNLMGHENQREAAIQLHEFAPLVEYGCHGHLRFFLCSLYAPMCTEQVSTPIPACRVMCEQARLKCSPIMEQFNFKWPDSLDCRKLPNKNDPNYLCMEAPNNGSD
Assay: Flow cytometry of anti-FZD5 Fab binding to CHO cells overexpressing Frizzled CRD
Experimental: Plasmids: pLCKO lentiviral vector used for knockout (TKO) library construction and expression of individual gRNAs was constructed as described previously (Hart et al., 2015). Briefly, single guide RNA (sgRNA) scaffold was amplified from px330 (Addgene 42230) and cloned into pLKO.TRC005 lentiviral vector (Broad Institute, Cambridge, Mass.) using AgeI/EcoRI restriction sites. BfuAI sites were added at the 5′ end of the sgRNA scaffold for cloning the TKO library or individual gRNA target sequences. Lenti Cas9-2A-BsdR vector used to generate Cas9 stable expression cell lines was constructed as described previously (Hart et al., 2015). Briefly, lentiCRISPR pXPR_001 (Addgene 49535) was modified through removal of the sgRNA scaffold region through NdeI/EcoRI digest and blunt ends generation using Large Klenow Fragment (NEB). 2A-puro was replaced with 2A-BsdR by PCR using the NheI/MluI sites. Each of the 10 human Frizzled cysteine rich domains (CRDs) were cloned into the lentiviral expression plasmid pLenti-puro in the following cassette: FZD_CRD-MYC-GPI.
Flow cytometry: Primary staining of cells was performed by treatment with 200 nM Frizzled profiler Fab. Alexa Fluor 488 AffiniPure F(ab′)2 was used as the secondary antibody (Jackson ImmunoResearch #109-546-097). c-Myc (9E10) IgG1 (primary antibody, Santa Cruz, lot #D0306) and Alexa Fluor 488 IgG (secondary antibody, Life technologies, lot #1458649) were used as controls. Dead cells were excluded by staining with Fixable Viability Dye eFluor 660 (eBioscience, catalogue number 65-0864). All reagents were used as per manufacturer's instructions. Flow cytometry was performed on a BD FACSCanto II flow cytometer (BD Biosciences), and data were analyzed with FlowJo software (FlowJo, LLC).
To confirm that the FZD5-WNT7B circuit is not driven simply by expression and rule out the possibility of a disconnect between RNA and protein levels for the Wnt receptors in HPAF-II cells, a panel of recombinant Fabs were generated, alternatively referred to herein as ‘Frizzled profiler’, that can detect and discriminate all but one of the ten Frizzled receptors. […] To characterize the binding specificity of these Fabs on cells, a panel of 10 CHO cell lines was generated, each expressing the CRD domain of a different myc-tagged Frizzled family member anchored at the plasma membrane through a GPI anchor (CHO-myc-FZDGPI). Despite the high sequence identity between Frizzled family members (FIG. 7A, FIG. 7B), selective Fabs were identified for FZD4, FZD5, FZD6 and FZD10 as assessed by immunofluorescence and flow cytometry (FIG. 7D and FIG. 8). […] The FZD8 CRD is most homologous to that of FZD5 (FIG. 7B). These Fabs can be used to discriminate expression of FZD1, FZD2, FZD4, FZD5, FZD6, FZD7, FZD8, FZD9 and FZD10 (FIG. 7D and FIG. 8). The ‘Frizzled profiler’ therefore consists of 10 different Fabs that can be used to discriminate expression of 9 different Frizzled family members. The Frizzled profiler was then used to confirm that HPAF-II cells express FZD1, FZD5, FZD6 and possibly FZD8 (FIG. 7E).
The binding of anti-FZD5 Fabs to cell surface-expressed Frizzled protein was further determined for each member of the Frizzled family via flow cytometry and immunofluorescence analysis of a panel of 10 CHO cell lines, each ectopically over-expressing the extracellular cysteine-rich domain (CRD) of a different Frizzled protein family member.

- Median fluorescence, Frizzled CRD overexpressed on CHO cells: FZD10: 2.59
Substance: Fab-2931: anti-FZD5 Fab with antibody variable region Fv-2931; CDR SEQ ID NOs: 35, 36, 70, 102, 146, 176 (CDR 1 QSVSSA; CDR 2 SAS; CDR 3 QQSSYSLIT; CDR 4 GFNLSYSS; CDR 5 ISPYSGST; CDR 6 ARGSYWYVGGGWWVSGHGGMDY)
